From publication PMC7432041, “[…], Artificial Tetrameric Lectins: A Tool to Screen Ligand and Pathogen Interactions” (International Journal of Molecular Sciences, 2020)

What was measured:
Assay in all cases: SEC-MALS; SEC-LS (static and dynamic light scattering, refractive index, absorbance at 280 and 550 nm); Shodex KW 802.5 column at 4 °C, 25 mM Tris pH 7.5, 150 mM NaCl, 4 mM CaCl2, 0.5 mL/min; 50 µL injected
[1] = target: DC-SIGNR Fc-CRD (fusion of the DC-SIGNR CRD with human IgG1 Fc) (human)
[2] = target: the molecule itself
Cy3-NeutrAvidin = target: T1, Cy3-NeutrAvidin (UniProt P02701 25-152, Cy3 (Cy3-NHS ester, degree of labelling 0.5)); details: both partners purified
T1 construct: NeutrAvidin, a deglycosylated tetrameric protein derived from avidin; subunit MW = 14.5 kDa as printed; Deglycosylated avidin; also called NeutrAvidin-Cy3; tetrameric NeutrAvidin; source: bought: ThermoFisher Scientific; labelled with Cy3-NHS ester
T1 sequence (P02701 25-152): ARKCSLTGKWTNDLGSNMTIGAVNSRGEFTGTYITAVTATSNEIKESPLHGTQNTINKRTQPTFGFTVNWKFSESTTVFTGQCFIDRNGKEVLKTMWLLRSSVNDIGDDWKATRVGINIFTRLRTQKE

“DC-SIGNR Fc-CRD (fusion of the DC-SIGNR CRD with human IgG1 Fc) (Fc fusion)” gave a stoichiometry N [1] of 2.

B1: DC-SIGNR ECD (natural extracellular domain of human DC-SIGNR) (domain or fragment, UniProt Q9H2X3 78-399, looked up)
chain: SLSQEQSEQDAIYQNLTQLKAAVGELSEKSKLQEIYQELTQLKAAVGELPEKSKLQEIYQELTRLKAAVGELPEKSKLQEIYQELTRLKAAVGELPEKSKLQEIYQELTRLKAAVGELPEKSKLQEIYQELTELKAAVGELPEKSKLQEIYQELTQLKAAVGELPDQSKQQQIYQELTDLKTAFERLCRHCPKDWTFFQGNCYFMSNSQRNWHDSVTACQEVRAQLVVIKTAEEQNFLQLQTSRSNRFSWMGLSDLNQEGTWQWVDGSPLSPSFQRYWNSGEPNNSGNEDCAEFSGSGWNDNRCDVDNYWICKKPAACFRDE
notes: DC-SIGNR (L-SIGN), human, extracellular domain, amino acids 78 to 399; optimized synthetic gene in pET30-b between NdeI and HindIII; also called natural tetrameric DC-SIGNR ECD; L-SIGN ECD
B1 was tested, and the “stoichiometry N” value [2] was 4.

B2: Biotin sortagged DC-SIGNR-CRD (biotin-LPRT-GGG-DC-SIGNR CRD) (domain or fragment, human)
chain: LPRTGGGLCRHCPKDWTFFQGNCYFMSNSQRNWHDSVTACQEVRAQLVVIKTAEEQNFLQLQTSRSNRFSWMGLSDLNQEGTWQWVDGSPLSPSFQRYWNSGEPNNSGNEDCAEFSGSGWNDNRCDVDNYWICKKPAACFRDE
modifications: biotin on the N-terminus (biotin-LPRT peptide joined by sortase A)
notes: sortase A motif of the biotin-LPRT-OMe peptide, transferred onto the N-terminal glycines; poly-Gly extension at the N-terminus of the CRD, exposed after factor Xa cleavage; DC-SIGNR (L-SIGN), human, CRD, amino acids 264 to 399; optimized synthetic gene in pET30-b between XbaI and HindIII; Theoretical mass 16.5 kDa (ESI-MS 16,556); also called biotin-CRD; biotinylated DC-SIGNR CRD; source: …
B2 was tested, and the “stoichiometry N” value (Cy3-NeutrAvidin) was 4 biotin-CRD per NeutrAvidin tetramer (4:4 by chains).
